In this assay the target is MRE11 (human) (UniProt P49959). Description: cryo-EM structure.

As usually defined, the stoichiometry N is a count of units in the complex or per binding partner.

MRE11 (human), sequence (P49959 whole entry): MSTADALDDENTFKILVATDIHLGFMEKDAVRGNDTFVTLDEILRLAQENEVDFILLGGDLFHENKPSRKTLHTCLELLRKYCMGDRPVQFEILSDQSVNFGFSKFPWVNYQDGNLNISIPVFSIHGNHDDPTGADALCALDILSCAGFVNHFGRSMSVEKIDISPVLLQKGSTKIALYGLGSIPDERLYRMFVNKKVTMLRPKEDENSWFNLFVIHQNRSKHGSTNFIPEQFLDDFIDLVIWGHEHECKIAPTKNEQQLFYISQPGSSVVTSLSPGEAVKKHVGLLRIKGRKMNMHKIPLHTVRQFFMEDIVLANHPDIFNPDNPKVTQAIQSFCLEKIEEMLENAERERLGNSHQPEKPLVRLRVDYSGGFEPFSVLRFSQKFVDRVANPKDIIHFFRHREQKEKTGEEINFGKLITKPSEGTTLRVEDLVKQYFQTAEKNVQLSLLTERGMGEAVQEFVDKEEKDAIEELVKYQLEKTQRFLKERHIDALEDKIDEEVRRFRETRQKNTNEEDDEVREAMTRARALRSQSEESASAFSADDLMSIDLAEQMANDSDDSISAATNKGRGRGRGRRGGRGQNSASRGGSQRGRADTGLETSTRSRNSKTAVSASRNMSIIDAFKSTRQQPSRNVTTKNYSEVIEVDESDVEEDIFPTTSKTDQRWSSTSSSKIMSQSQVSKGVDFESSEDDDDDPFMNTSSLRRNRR
MRE11, sequence (P49959 whole entry): as above
NBS1, sequence (O60934 whole entry): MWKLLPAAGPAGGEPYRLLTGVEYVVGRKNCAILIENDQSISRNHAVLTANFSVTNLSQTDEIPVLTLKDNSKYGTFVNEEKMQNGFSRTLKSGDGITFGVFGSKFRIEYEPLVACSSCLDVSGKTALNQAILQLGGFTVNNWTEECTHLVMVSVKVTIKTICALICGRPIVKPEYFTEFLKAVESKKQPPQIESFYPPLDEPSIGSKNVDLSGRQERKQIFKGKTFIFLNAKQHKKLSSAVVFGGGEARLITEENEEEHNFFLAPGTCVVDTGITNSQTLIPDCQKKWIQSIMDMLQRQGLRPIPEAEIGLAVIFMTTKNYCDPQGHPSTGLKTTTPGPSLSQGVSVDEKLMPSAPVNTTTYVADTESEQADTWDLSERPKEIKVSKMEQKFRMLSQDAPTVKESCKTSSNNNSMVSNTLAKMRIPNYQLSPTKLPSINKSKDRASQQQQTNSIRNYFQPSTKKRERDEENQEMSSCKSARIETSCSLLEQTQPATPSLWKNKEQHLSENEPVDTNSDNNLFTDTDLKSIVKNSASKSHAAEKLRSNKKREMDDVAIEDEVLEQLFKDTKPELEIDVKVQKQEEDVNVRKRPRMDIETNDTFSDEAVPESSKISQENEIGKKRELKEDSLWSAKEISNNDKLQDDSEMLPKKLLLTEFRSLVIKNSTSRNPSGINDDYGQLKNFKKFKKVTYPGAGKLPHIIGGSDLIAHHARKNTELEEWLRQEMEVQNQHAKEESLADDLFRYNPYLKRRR

As for “MRE11 (from UniProt P49959) (natural protein)”, the stoichiometry N was determined as 2.
Consider “NBS1 (from UniProt O60934) (natural protein)”, for which the stoichiometry N (NBS1 per MRE11 dimer) is 1.

Source of the values: article doi:10.1101/2025.03.14.643254.
